Assay results as given in publication PMC5862951.

Molecular target: His6-tagged rat SLFN13 N′-domain, residues 14–353 (crystallised rSLFN13_(14–353)) (rat) (UniProt Q5U311)
Assay: right-angle light scattering (RALS) of eluted protein; purified protein in solution; elution with RALS detection; conditions not shown (Supplementary Fig. 2a)

Substance: His6-tagged rat SLFN13 N′-domain, residues 14–353 (crystallised rSLFN13_(14–353)) (from UniProt Q5U311 14-353) (domain or fragment)
- stoichiometry N: 2
